Measured values taken from patent US20220096594A1 (University of Texas, published 2022).
Bridge positions count the residues as written; N and C are the ends. Square brackets hold non-standard residues; d marks the D form. Primed or numbered codes have the meaning given here. Ends that are not written are not given here. * marks the point of attachment. DSG″ = disuccinimidyl glutarate, a bis-NHS cross-linker that leaves a glutaryl bridge between two amines; DSG(3) = disuccinimidyl glutarate, bis-NHS cross-linker leaving a glutaryl bridge between two amines; puromycin = COc1ccc(C[C@H](N*)C(=O)N[C@H]2[C@@H](O)[C@H](n3cnc4c(N(C)C)ncnc43)O[C@@H]2CO)cc1; DSG = disuccinimidyl glutarate; NMeA = CN[C@@H](C)C(=O)O; mRNA = not defined here

B1: Clone 4E radiolabeled mRNA-peptide fusion (peptide)
peptide: MLSDIPVNDK-{puromycin-mRNA}
modifications: bridge N-10 via DSG(3); reading uncertain; also: radiolabeled
B2: Clone 25A radiolabeled mRNA-peptide fusion (peptide)
peptide: MYARSLRD[NMeA]K
modifications: bridge N-10; not fully specified (C-terminus, bridges); also: radiolabeled
B3: Clone 25F radiolabeled mRNA-peptide fusion (peptide)
peptide: MNARSLRD[NMeA]K
modifications: bridge N-10; not fully specified (C-terminus, bridges); also: radiolabeled
B4: SUPR 4B (synthesized cyclic peptide) (peptide)
peptide: MFPHRVTA[NMeA]K
modifications: bridge N-10 via DSG″
notes: It is kept apart from the mRNA-peptide fusion m1; also called Clone 4B
B5: Clone 25C radiolabeled mRNA-peptide fusion (peptide)
peptide: MFSHRVTL[NMeA]K
modifications: bridge N-10; not fully specified (C-terminus, bridges); also: radiolabeled
B6: SUPR 4B1W (peptide)
peptide: MWPHRVTA[NMeA]K
modifications: bridge N-10 via DSG
notes: Phenylalanine-to-tryptophan variant of SUPR 4B at position 2
B7: Clone 4B radiolabeled mRNA-peptide fusion (peptide)
peptide: MFPHRVTA[NMeA]K
modifications: bridge N-10; not fully specified (C-terminus, bridges); also: radiolabeled
notes: Tested as an individual in vitro translated peptide fusion from the SUPR mRNA display selection; also called Peptide 4B

Legend:
[1] = molecular target: T1, His6-LC3A, biotinylated and immobilized on streptavidin agarose (human, UniProt Q9H492 1-121, chemically biotinylated (sites not given)); test: radiolabeled peptide fusion incubated with immobilized LC3A
T1 construct: the species is not restated for this construct; The tag is placed at the N-terminus only because of the name His6-LC3A; also called immobilized LC3A; immobilized LC3; not shown: His6 tag

[2] = molecular target: LC3 (as used in surface plasmon resonance) (human, UniProt Q9H492 1-120); test: surface plasmon resonance

Binder	% of radiolabeled peptide-fusions bound to immobilized LC3 [1] [%]	Kd [2] [µM]	fold improvement of the apparent dissociation constant relative to SUPR4B [2] [fold]
B1	7	–	–
B2	6	–	–
B3	5	–	–
B4	–	291	–
B5	13	–	–
B6	–	30	~10
B7	86	–	–
